Here are results for two molecules from patent publication CN116761824A (SHANGHAI YAOMING HELIAN BIOTECHNOLOGY CO LTD, dated 2023).

This experiment deals with T1, 人Trop2 (human, UniProt P09758 27-323).
T1 construct: whole, on cells; also called 肿瘤相关钙信号转导器2; TACSTD2
T1 sequence (looked up): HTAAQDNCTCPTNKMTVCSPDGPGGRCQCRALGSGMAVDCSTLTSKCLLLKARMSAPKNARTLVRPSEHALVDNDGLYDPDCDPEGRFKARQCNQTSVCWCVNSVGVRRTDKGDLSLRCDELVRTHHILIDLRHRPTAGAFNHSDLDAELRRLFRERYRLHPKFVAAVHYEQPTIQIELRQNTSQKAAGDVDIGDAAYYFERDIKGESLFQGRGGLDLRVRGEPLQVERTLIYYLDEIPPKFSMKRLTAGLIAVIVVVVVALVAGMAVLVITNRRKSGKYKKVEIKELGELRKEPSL
In words: FACS on tumour cells (MDA-MB-468, HCC827, BxPC-3), Alexa647 goat anti-human IgG Fc detection.

B1: 抗-Trop2抗体886-36 (antibody, V domains shown)
VH: QVQLQQSGSELKKPGASVKVSCKASGYTFTNYGMNWVKQAPGQGLKWMGWINTYTGEPTYTDDFKGRFAFSLDTSVSTAYLQISSLKADDTAVYFCARGGFGSSYWYFDVWGQGSLVTVSS
VL: DIQLTQSPSSLSASVGDRVSITCKASQDVSIAVAWYQQKPGKAPKLLIYSASYRYTGVPDRFSGSGSGTDFTLTISSLQPEDFAVYYCQQHYITPLTFGAGTKVEIKR
notes: also called WBP886-36
Take B1: the binding result is recorded as “binds”.

B2: 886-36-MMAE (antibody, V domains shown)
VH: B1 VH
VL: B1 VL
modifications: MC-vc-PAB-MMAE on cysteines freed by partial TCEP reduction of interchain disulfides; mostly in the Fab domain; mainly DAR4 (82.3%)
B2: the binding result is listed as “binds”.
